Data from patent US20190119696A1 (YEDA RESEARCH AND DEVELOPMENT, published 2019).

Target: T1, APS1 (small subunit of ADP-glucose pyrophosphorylase, AGPase; AT5G48300), endogenous in Arabidopsis plants (Arabidopsis thaliana, UniProt P55228 72-520, limits assumed)
T1 construct: Endogenous plant protein
T1 sequence (looked up): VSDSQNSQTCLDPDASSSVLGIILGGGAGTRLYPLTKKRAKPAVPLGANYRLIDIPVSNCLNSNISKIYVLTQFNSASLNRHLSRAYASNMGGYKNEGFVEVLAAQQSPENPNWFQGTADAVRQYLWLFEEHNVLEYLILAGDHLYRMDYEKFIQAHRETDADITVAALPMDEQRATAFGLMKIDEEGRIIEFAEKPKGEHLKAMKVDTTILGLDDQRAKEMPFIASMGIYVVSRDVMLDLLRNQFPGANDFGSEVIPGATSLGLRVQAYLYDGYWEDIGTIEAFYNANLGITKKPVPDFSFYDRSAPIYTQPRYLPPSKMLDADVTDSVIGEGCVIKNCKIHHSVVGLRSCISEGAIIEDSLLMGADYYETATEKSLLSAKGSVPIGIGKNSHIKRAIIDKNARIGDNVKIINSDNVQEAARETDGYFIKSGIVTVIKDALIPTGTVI
Assay: in planta trapping of intermolecular disulfide reaction intermediates; non-reducing SDS-PAGE, anti-HA immunoblot

B1: ACHT4ΔC (Arabidopsis ACHT4 lacking the 47-amino acid C-terminus), fused to the HA3 affinity tag (enzyme, not shown: small tags and cut ends)
chain: SSAITAQTTLRIGTAQKWWEKGLKDNMREISSAQELVDSLTNAGDKLVVVDFFSPGCGGCKALHPKICQFAEMNPDVQFLQVNYEEHKSMCYSLGVHVLPFFRFYRGSQGRVCSFSCTNATIKKFRDALAKHGPDRCSLGPTKGLEEKELVALAAN
notes: also called AtACHT4ΔC; AtACHT4-C-Del
Q: Does B1 bind?
A: no binding
